Usually stoichiometry N stands for a count of units in the complex or per binding partner.

The record followed here is article PMC10682184, “Molecular basis for the catalytic mechanism of human neutral sphingomyelinases 1 (hSMPD2)” (Nature Communications, 2023).

This data set deals with the molecule itself. Nature of the data set: cryo-EM structure; apo hSMPD2 at about 10 mg/mL in 25 mM Hepes pH 7.4, 150 mM NaCl, 2 mM Mg2+, 0.005% LMNG; final map refined with C2 symmetry.

B1: human neutral sphingomyelinase 1 (hSMPD2), full length, wild type, twin-Strep tagged (enzyme, UniProt O60906 1-423, looked up)
chain: MKPNFSLRLRIFNLNCWGIPYLSKHRADRMRRLGDFLNQESFDLALLEEVWSEQDFQYLRQKLSPTYPAAHHFRSGIIGSGLCVFSKHPIQELTQHIYTLNGYPYMIHHGDWFSGKAVGLLVLHLSGMVLNAYVTHLHAEYNRQKDIYLAHRVAQAWELAQFIHHTSKKADVVLLCGDLNMHPEDLGCCLLKEWTGLHDAYLETRDFKGSEEGNTMVPKNCYVSQQELKPFPFGVRIDYVLYKAVSGFYISCKSFETTTGFDPHRGTPLSDHEALMATLFVRHSPPQQNPSSTHGPAERSPLMCVLKEAWTELGLGMAQARWWATFASYVIGLGLLLLALLCVLAAGGGAGEAAILLWTPSVGLVLWAGAFYLFHVQEVNGLYRAQAELQHVLGRAREAQDLGPEPQPALLLGQQEGDRTKEQ
notes: human SMPD2 (neutral sphingomyelinase 1), UniProt O60906, full length; cloned from human cDNA into pcDNA3.1(-); In the cryo-EM model the loop preceding TMH1 and residues 403-423 were disordered and not modelled; also called nSMase1; apo hSMPD2; source: HEK293F, transiently transfected, purified (membranes solubilised in LMNG, Strep-Tactin, size-exclusion chromatography)
Turning to B1, the “stoichiometry N” value was found to be 2.
